Changes are numbered by the printed parent chain. Names and notes keep the numbering of the source. Values joined by “and” are separate entries in the source; they are usually repeats but may differ in a detail not shown here. Identical values can stand only once.
B1: RY-HL-LC-A12 FACS4 (IgG4 S228P) (antibody, V domains shown)
VH: QVQLVQSGAEVKKPGSSVKVSCKASGYEFSYYWMNWVRQAPGQGLEWMGQIYPGDGETKYAQKFQGRVTITADKSTSTAYMELSSLRSEDTAVYYCARSHGNYLPYWGQGTLVTVSS
VL: EIVLTQSPATLSLSPGERATLSCRASQSVSSRYLHWYQQKPGQAPRLLIYGTSNLASGIPARFSGSGSGTDFTLTISRLEPEDFAVYYCHQYSRSPPTFGQGTKVEIKR
B2: RY-HL-LC-C12 FACS4 (IgG4 S228P) (antibody, V domains shown)
VH: B1 VH
VL: B1 VL with G51S, N54R, S93H
B3: RY-LC-A10 FACS5 (IgG4 S228P) (antibody, V domains shown)
VH: B1 VH
VL: B1 VL with G51S, L55R, H90Q, S93H
B4: RY-LC-B12 FACS3 (IgG4 S228P) (antibody, V domains shown)
VH: B1 VH
VL: B1 VL with G51S, N54R, H90Q, S93H
B5: P1C4-h2-IgG1 (antibody)
heavy: not shown
light: EIVLTQSPATLSLSPGERATLSCRASQSVSSSYLHWYQQKPGQAPRLLIYSTSNLASGIPARFSGSGSGTDFTLTISRLEPEDFAVYYCHQYHRSPPTFGQGTKVEIKRTVAAPSVFIFPPSDEQLKSGTASVVCLLNNFYPREAKVQWKVDNALQSGNSQESVTEQDSKDSTYSLSSTLTLSKADYEKHKVYACEVTHQGLSSPVTKSFNRGEC
notes: also called P1C4-H2 (YE); P1C4-H2 (YE)-IgG
B6: P1C4-h0-IgG1 (antibody, V domains shown)
VH: B1 VH with Y27G, E28T
VL: B1 VL with R32S, G51S, S93H
notes: also called P1C4-H0 No mutation; PA12R3-P1C4 HO (no back mutation)
B7: P1C4-h4-IgG1 (antibody)
heavy: not shown
light: B5 light
notes: also called P1C4-H4 (YENG); P1C4-H4 (YENG)-IgG
B8: P1C4-h2 Fab (Fab, V domains shown)
VH: B1 VH
VL: EIVLTQSPATLSLSPGERATLSCRASQSVSSSYLHWYQQKPGQAPRLLIYSTSNLASGIPARFSGSGSGTDFTLTISRLEPEDFAVYYCHQYHRSPPTFGQGTKVEIK
notes: Fab; constant parts not described; also called humanized P1C4 Fab h2
B9: P1C4-h4 Fab (Fab, V domains shown)
VH: B1 VH with A61N, Q62G
VL: B8 VL
notes: Fab; constant parts not described; also called humanized P1C4 Fab h4

Tests used:
[1] = biological target: T1, native full length human CB1 receptor (cannabinoid 1 receptor) (human, UniProt P21554 1-472); assay: cell-based or functional assay
[2] = biological target: T1, native full length human CB1 receptor …; assay: flow cytometry, TRex-CHO full length native human CB1 cells; mean
Description: (§1) After being washed with 200 μL of FACS buffer twice, cells were incubated with secondary antibody for 30 minutes on ice. Cells were washed with 200 μL of FACS buffer twice and transferred to BD Falcon 5 mL tube and analyzed by FACS. Data analysis and measurement of binding affinity (KD) was performed using GraphPad Prism software.

[3] = biological target: T1, native full length human CB1 receptor …; assay: flow cytometry, TRex-CHO full length native human CB1 cells; Exp 1
Description: as §1

[4] = biological target: T1, native full length human CB1 receptor …; assay: flow cytometry, TRex-CHO full length native human CB1 cells; Exp 2
Description: as §1

mouse CB1 = biological target: T2, mouse CB1 (mouse, UniProt P47746 1-473); assay: flow cytometry on TRex-CHO mouse CB1 cells, lower panel
T2 construct: whole, on cells; also called TRexCHO Mouse CB1
T2 sequence (P47746 whole entry): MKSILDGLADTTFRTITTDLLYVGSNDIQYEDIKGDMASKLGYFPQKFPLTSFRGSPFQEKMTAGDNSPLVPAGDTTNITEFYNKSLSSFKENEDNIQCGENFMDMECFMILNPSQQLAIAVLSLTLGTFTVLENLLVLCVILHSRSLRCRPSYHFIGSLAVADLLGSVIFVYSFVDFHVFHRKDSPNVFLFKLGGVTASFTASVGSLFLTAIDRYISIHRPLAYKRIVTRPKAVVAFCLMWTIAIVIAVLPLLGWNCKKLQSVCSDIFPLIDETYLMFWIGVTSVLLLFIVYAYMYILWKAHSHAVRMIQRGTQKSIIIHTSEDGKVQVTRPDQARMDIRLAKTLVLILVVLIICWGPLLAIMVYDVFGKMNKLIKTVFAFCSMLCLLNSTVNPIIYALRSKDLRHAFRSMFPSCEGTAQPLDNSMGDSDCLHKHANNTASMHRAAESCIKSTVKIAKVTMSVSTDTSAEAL
Description: (§2) After being washed with 200 μl of FACS buffer twice, cells were incubated with PE conjugated anti-human secondary antibody (Southern Biotech) for 30 minutes on ice. Cells were washed with 200 μl of FACS buffer twice and transferred to BD Falcon 5 ml tube and analyzed by flow cytometry (BD FACScalibur).

human CB2 = biological target: T3, human CB2 (human, UniProt P34972 1-360); assay: flow cytometry on TRex-CHO human CB2 cells, middle panel
T3 construct: whole, on cells; also called TRexCHO Human CB2
T3 sequence (P34972 whole entry): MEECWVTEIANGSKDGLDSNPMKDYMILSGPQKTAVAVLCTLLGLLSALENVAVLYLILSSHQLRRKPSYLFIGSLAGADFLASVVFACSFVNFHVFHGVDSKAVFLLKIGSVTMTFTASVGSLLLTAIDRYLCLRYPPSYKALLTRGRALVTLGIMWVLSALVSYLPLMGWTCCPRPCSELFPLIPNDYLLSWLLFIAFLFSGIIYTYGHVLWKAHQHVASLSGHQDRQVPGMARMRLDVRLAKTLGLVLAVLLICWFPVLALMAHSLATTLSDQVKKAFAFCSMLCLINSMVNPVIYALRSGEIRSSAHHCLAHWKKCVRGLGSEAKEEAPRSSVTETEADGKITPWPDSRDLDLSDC
Description: as §2

[5] = biological target: T1, native full length human CB1 receptor …; assay: cell-based or functional assay; remark: listed apart in the source
[6] = biological target: T1, native full length human CB1 receptor …; assay: cell-based or functional assay; remark: listed apart in the source
[7] = biological target: T4, TRex CHO A56 over-expressed CB1 (CB1 T210A/fusion partner) (UniProt P21554 1-472); assay: flow cytometry, TRexCHO A56 cells
T4 construct: whole, on cells; The fusion partner stands inside the CB1 chain in place of ICL3, not at its end; also called Trex-CHO CB1 T210A/fusion partner; not shown: fusion partner that replaces ICL3
Description: as §2

[8] = biological target: T1, native full length human CB1 receptor …; assay: flow cytometry, TRexCHO A156 cells
Description: as §2

[9] = biological target: T1, native full length human CB1 receptor …; assay: flow cytometry, TRex-CHO human CB1 cells; mean ± SD
Description: (§3) TRex CHO parental cells, and TRex-CHO cells stably transfected with tetracycline inducible human CB1, human CB2 or mouse CB1 expression constructs were harvested. […] Cells were then centrifuged at 4° C. at 1600 rpm for 3 minutes; supernatant was aspirated and cells were washed with 200 μL FACS buffer. The washing procedure was repeated twice. After the final wash, cells were re-suspended in FACS buffer containing PE-conjugated anti-human Fc secondary antibody (1:200 dilutions) and incubated at 4° C. for 30 minutes. Cells were washed with 200 μL FACS buffer twice and analyzed by flow cytometry (Guava). Data analysis and measurement of binding affinity (KD) was performed using GraphPad Prism software.

[10] = biological target: T1, native full length human CB1 receptor …; assay: flow cytometry, TRex-CHO human CB1 cells; mean of batch 1
Description: as §3

[11] = biological target: T1, native full length human CB1 receptor …; assay: flow cytometry, TRex-CHO human CB1 cells; mean of batch 2
Description: as §3

[12] = biological target: T1, native full length human CB1 receptor …; assay: flow cytometry, TRex-CHO human CB1 cells; mean of batch 3
Description: as §3

[13] = biological target: T1, native full length human CB1 receptor …; assay: flow cytometry on TRex-CHO cells with tetracycline inducible human CB1
Description: as §3

[14] = biological target: T1, native full length human CB1 receptor …; assay: cell-based or functional assay; remark: listed apart in the source
[15] = biological target: T1, native full length human CB1 receptor …; assay: flow cytometry, Fab on TRex-CHO human CB1 cells
[16] = biological target: T1, native full length human CB1 receptor …; assay: flow cytometry on TRex-CHO cells stably transfected with tetracycline inducible CB1, FITC-conjugated anti-human antibody [panel A]
[17] = biological target: T1, native full length human CB1 receptor …; assay: cell-based or functional assay; remark: listed apart in the source

Row | Binder | Exp 1 IC50 (nM), cAMP antagonist assay [1] [nM] | Exp 2 IC50 (nM), cAMP antagonist assay [1] [nM] | Exp 3 IC50 (nM), cAMP antagonist assay [1] [nM] | Kd [2] [nM] | Kd [3] [nM] | Kd [4] [nM] | binding result (mouse CB1) | binding result (human CB2) | other results
1 | B1 | 48 | 33.9 | 42.4 | 10.3 | 11.5 | 9.19 | – | – | –
2 | B2 | 76.8 | 52.5 | 43.1 | 14.1 | 14.4 | 13.9 | – | – | –
3 | B3 | 120 | 62.6 | 48.1 | 12.4 | – | 12.4 | – | – | –
4 | B4 | 40.9 | 32.9 | 39.7 | 8.82 | 8.75 | 8.89 | – | – | –
5 | B5 | – | – | – | – | – | – | no binding (tested: about 300 nM (last point)) | no binding (tested: about 300 nM (last point)) | –
6 | B6 | – | – | – | – | – | – | no binding (tested: about 300 nM (last point)) | no binding (tested: about 300 nM (last point)) | IC50 (nM), cAMP assay [5]: 146 nM; cAMP IC50 (nM) Mean of Batch 1 [n] [6]: 158 nM; cAMP IC50 (nM) Mean of Batch 2 [n] [6]: 343 nM; Kd [7]: 4.5 nM; Kd [8]: 25 nM; Kd [9]: 24 nM; Kd [10]: 23 nM; Kd [11]: 24 nM; Kd [12]: 24 nM; EC50 (read off the curve) [13]: ~10 nM and ~20 nM
7 | B7 | – | – | – | – | – | – | no binding (tested: about 300 nM (last point)) | no binding (tested: about 300 nM (last point)) | –
8 | B8 | – | – | – | – | – | – | – | – | IC50 cAMP assay [14]: 52 nM; Kd [15]: 14 nM; EC50 (read off the curve) [16]: 10 to 20 nM
9 | B9 | – | – | – | – | – | – | – | – | IC50 cAMP assay [14]: 43 nM; IC50 (read off the curve), cAMP assay [panel B] [17]: ~40 nM; Kd [15]: 16.2 nM; EC50 (read off the curve) [16]: ~20 nM

Source: patent US20260176352A1 (BIRD ROCK BIO, published 2026)
